Measurements published in publication doi:10.1101/2021.08.16.456468.

Molecular target: DnaD^7A, purified (B. subtilis) (UniProt P39787)
Experiment: SEC

Work on “DnaD^7A, purified (from UniProt P39787 1-232) (natural protein)” yielded a stoichiometry N of 4.
